Test results as given in patent US20120309696A1 (UNIVERSITY OF DENVER, published 2012).

Key:
[1] = target: T1, human melanocortin 2 receptor (hMC2R), V-5 epitope tagged, expressed on CHO cells co-transfected with mouse … (human, UniProt Q01718 1-297); assay: cell-based or functional assay
[2] = target: T1, human melanocortin 2 receptor (hMC2R), …; assay: cell-based or functional assay; remark: listed apart in the source

T1 sequence (Q01718 whole entry): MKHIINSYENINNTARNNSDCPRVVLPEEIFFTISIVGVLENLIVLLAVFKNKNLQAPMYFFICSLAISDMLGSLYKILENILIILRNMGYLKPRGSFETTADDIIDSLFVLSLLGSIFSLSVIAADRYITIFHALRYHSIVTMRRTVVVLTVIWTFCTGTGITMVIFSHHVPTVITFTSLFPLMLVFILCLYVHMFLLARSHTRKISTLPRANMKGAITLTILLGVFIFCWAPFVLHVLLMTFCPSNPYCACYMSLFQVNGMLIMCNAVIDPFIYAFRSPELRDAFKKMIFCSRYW

fold decrease in potency in cAMP production against ACTH(1-24) [1] [fold] | fold decrease in MC2R activation relative to full-length ACTH (cAMP production in transfected CHO cells) [2] [fold] | Binder
1000 | – | SYSMEHFRWGKPVGAAAAAVKVYP [ACTH analog SYSMEHFRWGKPVGAAAAAVKVYP]
– | 100 | SYSMEHFRWGKPVGAARRPVKVYP [ACTH analog SYSMEHFRWGKPVGAARRPVKVYP]
– | 400 | SYSMEHFRWAAAAAKKRRPVKVYP [ACTH analog SYSMEHFRWAAAAAKKRRPVKVYP]
– | 100 | SYSMEHFRWGKPVGKKAAAVKVYP [ACTH analog SYSMEHFRWGKPVGKKAAAVKVYP]
